Source: US20220105194A1, “CONJUGATE COMPRISING LIGAND, SPACER, PEPTIDE LINKER, AND BIOMOLECULE” (ASTELLAS PHARMA INC., priority 2019, published 2022)
Blank lines part the entries; values can stand above or below the molecule they belong to.

Tests used:
[1] = molecular target: human cancer-specific MUC1 peptide (PTL 1) (human); assay: ELISA, immobilised MUC1 peptide (Example 6-1)
[2] = molecular target: human cancer-specific MUC1 peptide (PTL 1) (human); assay: ELISA, immobilised MUC1 peptide (Example 6-2)
[3] = design: species or system mice (BALB/c nu/nu); settings: mouse, in vivo
Protocol: A Gd-labeled conjugate of the conjugate containing a peptide linker produced in one of the above Examples was administered from the tail vein of tumor-bearing mice so that the protein mass was 0.02 mg (100 μL) per animal. As the tumor-bearing mice used in the present Example, mice (BALB/c nu/nu) that were in a tumor-bearing state brought about by transplanting human colorectal cancer cell line LS174T cells (ATCC(registered trademark); CL-188) at 2.0 to 5.0×10^6 cells/mouse subcutaneously on the back before administration of the sample were used. 24 hours after administration of the sample, the mice were sacrificed, the kidneys and the tumor were removed, and the amounts of Gd in the kidneys and in the tumor were measured using ICP-MS. The present test was carried out in 3 cases in each group, and the mean value of the 3 cases was calculated. The amount of Gd contained per kidney after administration was shown as a percentage of the amount of Gd administered (% of dose/tissue), and the amount of Gd contained per g of tumor tissue was shown as a percentage of the total amount of Gd administered (% of dose/g).

[4] = mouse, in vivo
Protocol: (§1) A Gd-labeled conjugate of the conjugate containing a peptide linker produced in one of the above Examples was administered from the tail vein of mice (BALB/c or BALB/c nu/nu) so that the protein mass was 0.02 mg (100 μL) per animal. After about 24 hours, the mice were sacrificed and the kidneys were removed, and the amount of Gd in the kidneys was measured using ICP-MS. The present test was carried out in 3 cases in each group, the mean value of the 3 cases was calculated, and the amount of Gd contained per kidney after administration was shown as a percentage (% of dose/tissue) of the total amount of Gd administered.
Based on the percentage of the control conjugate (% of dose/tissue), the proportion of decrease in the amount of Gd contained in the kidneys of each of the conjugates having a peptide linker was determined and shown in Table 28.

[5] = design: species or system mice (BALB/c or BALB/c nu/nu); settings: mouse, in vivo
Protocol: as §1

human cancer-specific MUC1 peptide (PTL 1) (human), sequence (main, as listed by the source): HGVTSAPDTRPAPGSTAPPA

EC50 [1]: 0.08 nM
B1: ([Gd/DOTA-NH-CH2-(1,4-Ph)-NH-C(═O)-Met-Ile-NH-(CH2)2-(A-4 and/or A-5)]p-Fab^5) (Fab, V domains shown)
VH: QVQLVQSGAEVKKPGASVKVSCKASGYTFTNYGLSWVRQAPGQGLEWMGENHPGSGIIYHNEKFRGRVTLTADRSTSTAYMELSSLRSEDTAVYYCARSSGTRGFDYWGQGTLVTVSS
VL: DVVMTQTPLSLSVTPGQPASISCRSSQSIVHSNGNTYLEWYLQKPGQSPQLLIYRVSNRFSGVPDRFSGSGSGTDFTLKISRVEAEDVGVYYCFQGSHGPWTFGQGTKLEIKR
modifications: labeling portion on p amino groups of the Fab; chain and sites not stated

EC50 [2]: 0.08 nM
B2: ([Gd/DOTA-NH-CH2-(1,4-Ph)-NH-C(═O)-Met-Ile-NH-(CH2)2-Z1(#N)]p-Fab^5) (Fab, V domains shown)
VH: QVQLVQSGAEVKKPGASVKVSCKASGYTFTNYGLSWVRQAPGQGLEWMGENHPGSGIIYHNEKFRGRVTLTADRSTSTAYMELSSLRSEDTAVYYCARSSGTRGFDYWGQGTLVTVSS
VL: DVVMTQTPLSLSVTPGQPASISCRSSQSIVHSNGNTYLEWYLQKPGQSPQLLIYRVSNRFSGVPDRFSGSGSGTDFTLKISRVEAEDVGVYYCFQGSHGPWTFGQGTKLEIKR
modifications: labeling portion on p amino groups of the Fab; chain and sites not stated

EC50 [2]: 0.19 nM
B3: ([Gd/DOTA-[2,5-(1,2,3,4-tetrahydroisoquinoline)]-C(═O)-Met-Gly-Lys*-C(═S)-NH-(1,4-Ph)-NH-C(═S)]p-Fab^5) (Fab, V domains shown)
VH: QVQLVQSGAEVKKPGASVKVSCKASGYTFTNYGLSWVRQAPGQGLEWMGENHPGSGIIYHNEKFRGRVTLTADRSTSTAYMELSSLRSEDTAVYYCARSSGTRGFDYWGQGTLVTVSS
VL: DVVMTQTPLSLSVTPGQPASISCRSSQSIVHSNGNTYLEWYLQKPGQSPQLLIYRVSNRFSGVPDRFSGSGSGTDFTLKISRVEAEDVGVYYCFQGSHGPWTFGQGTKLEIKR
modifications: labeling portion on p amino groups of the Fab; chain and sites not stated

EC50 [2]: 0.09 nM
B4: ([Gd/DOTA-NH-CH2-(1,4-Ph)-NH-C(═O)-Met-Ile-NH-(CH2)2-Z1(#S)]p-Fab^5) (Fab, V domains shown)
VH: QVQLVQSGAEVKKPGASVKVSCKASGYTFTNYGLSWVRQAPGQGLEWMGENHPGSGIIYHNEKFRGRVTLTADRSTSTAYMELSSLRSEDTAVYYCARSSGTRGFDYWGQGTLVTVSS
VL: DVVMTQTPLSLSVTPGQPASISCRSSQSIVHSNGNTYLEWYLQKPGQSPQLLIYRVSNRFSGVPDRFSGSGSGTDFTLKISRVEAEDVGVYYCFQGSHGPWTFGQGTKLEIKR
modifications: labeling portion on p amino groups of the Fab; chain and sites not stated

B5: [Gd/DOTA-NH—(CH2CH2O)3—CH2—C(═O)—NH—CH2-(1,3-Ph)-C(═O)-Met-Gly-Lys*-Z2(#N)]p-Fab^2 (conjugate)
heavy: EVQLVESGGGLVQPGGSLRLSCAASGFNIRDTYMHWVRQAPGKGLEWVARIDPANGNSRYVPKFQGRFTISADTSRNTAYLQMNSLRAEDTAVYYCAPFGYYVSDYAMAYWGQGTLVTVSSASTKGPSVFPLAPSSKSTSGGTAALGCLVKDYFPEPVTVSWNSGALTSGVHTFPAVLQSSGLYSLSSVVTVPSSSLGTQTYICNVNHKPSNTKVDKKVEPKSCD
light: DIQLTQSPSSLSASVGDRVTITCRAGESVDIFGVGFLHWYQQKPGKAPKLLIYRASNLESGIPSRFSGSGSRTDFTLTISSLQPEDFATYYCQQTNEDPYTFGQGTKVEIKRTVAAPSVFIFPPSDEQLKSGTASVVCLLNNFYPREAKVQWKVDNALQSGNSQESVTEQDSKDSTYSLSSTLTLSKADYEKHKVYACEVTHQGLSSPVTKSFNRGEC
Renal residual amount (cancer-bearing mice), % of dose/tissue [3]: 8.40 % of dose/tissue | Renal residual amount (cancer-bearing mice), Proportion of decrease (%) [3]: 67.48% | Proportion of decrease (%) in the amount of Gd contained in the kidneys [4]: 78.0%

B6: [Gd/DOTA-NH—(CH2CH2O)3—CH2—C(═O)—NH—CH2-(1,3-Ph)-C(═O)-Gly-Lys*—Z2(#N)]p-Fab^2 (conjugate)
heavy: EVQLVESGGGLVQPGGSLRLSCAASGFNIRDTYMHWVRQAPGKGLEWVARIDPANGNSRYVPKFQGRFTISADTSRNTAYLQMNSLRAEDTAVYYCAPFGYYVSDYAMAYWGQGTLVTVSSASTKGPSVFPLAPSSKSTSGGTAALGCLVKDYFPEPVTVSWNSGALTSGVHTFPAVLQSSGLYSLSSVVTVPSSSLGTQTYICNVNHKPSNTKVDKKVEPKSCD
light: DIQLTQSPSSLSASVGDRVTITCRAGESVDIFGVGFLHWYQQKPGKAPKLLIYRASNLESGIPSRFSGSGSRTDFTLTISSLQPEDFATYYCQQTNEDPYTFGQGTKVEIKRTVAAPSVFIFPPSDEQLKSGTASVVCLLNNFYPREAKVQWKVDNALQSGNSQESVTEQDSKDSTYSLSSTLTLSKADYEKHKVYACEVTHQGLSSPVTKSFNRGEC
Proportion of decrease (%) in the amount of Gd contained in the kidneys [4]: 44.8%

B7: [Gd/DOTA-NH—(CH2CH2O)3—CH2—C(═O)—NH—CH2-(1,3-Ph)-C(═O)-Met-Gly-Lys*-Z2(#S)]p-Fab^2 (conjugate)
heavy: EVQLVESGGGLVQPGGSLRLSCAASGFNIRDTYMHWVRQAPGKGLEWVARIDPANGNSRYVPKFQGRFTISADTSRNTAYLQMNSLRAEDTAVYYCAPFGYYVSDYAMAYWGQGTLVTVSSASTKGPSVFPLAPSSKSTSGGTAALGCLVKDYFPEPVTVSWNSGALTSGVHTFPAVLQSSGLYSLSSVVTVPSSSLGTQTYICNVNHKPSNTKVDKKVEPKSCD
light: DIQLTQSPSSLSASVGDRVTITCRAGESVDIFGVGFLHWYQQKPGKAPKLLIYRASNLESGIPSRFSGSGSRTDFTLTISSLQPEDFATYYCQQTNEDPYTFGQGTKVEIKRTVAAPSVFIFPPSDEQLKSGTASVVCLLNNFYPREAKVQWKVDNALQSGNSQESVTEQDSKDSTYSLSSTLTLSKADYEKHKVYACEVTHQGLSSPVTKSFNRGEC
Renal residual amount (cancer-bearing mice), % of dose/tissue [3]: 9.40 % of dose/tissue | Renal residual amount (cancer-bearing mice), Proportion of decrease (%) [3]: 63.61% | Proportion of decrease (%) in the amount of Gd contained in the kidneys [4]: 77.4%

B8: [Gd/DOTA-NH—CH2-(1,3-Ph)-C(═O)-Asp-Gly-Lys*-Z2(#N)]p-Fab^2 (conjugate)
heavy: EVQLVESGGGLVQPGGSLRLSCAASGFNIRDTYMHWVRQAPGKGLEWVARIDPANGNSRYVPKFQGRFTISADTSRNTAYLQMNSLRAEDTAVYYCAPFGYYVSDYAMAYWGQGTLVTVSSASTKGPSVFPLAPSSKSTSGGTAALGCLVKDYFPEPVTVSWNSGALTSGVHTFPAVLQSSGLYSLSSVVTVPSSSLGTQTYICNVNHKPSNTKVDKKVEPKSCD
light: DIQLTQSPSSLSASVGDRVTITCRAGESVDIFGVGFLHWYQQKPGKAPKLLIYRASNLESGIPSRFSGSGSRTDFTLTISSLQPEDFATYYCQQTNEDPYTFGQGTKVEIKRTVAAPSVFIFPPSDEQLKSGTASVVCLLNNFYPREAKVQWKVDNALQSGNSQESVTEQDSKDSTYSLSSTLTLSKADYEKHKVYACEVTHQGLSSPVTKSFNRGEC
Renal residual amount (normal mice), % of dose/tissue [5]: 21.67 % of dose/tissue | Renal residual amount (normal mice), Proportion of decrease (%) [5]: 26.12% | Proportion of decrease (%) in the amount of Gd contained in the kidneys [4]: 52.2%

B9: [Gd/DOTA-NH—CH2-(1,4-Ph)-NH—C(═O)-Met-Ile-NH—(CH2)2—Z(#N)]p-Fab^2 (conjugate)
heavy: EVQLVESGGGLVQPGGSLRLSCAASGFNIRDTYMHWVRQAPGKGLEWVARIDPANGNSRYVPKFQGRFTISADTSRNTAYLQMNSLRAEDTAVYYCAPFGYYVSDYAMAYWGQGTLVTVSSASTKGPSVFPLAPSSKSTSGGTAALGCLVKDYFPEPVTVSWNSGALTSGVHTFPAVLQSSGLYSLSSVVTVPSSSLGTQTYICNVNHKPSNTKVDKKVEPKSCD
light: DIQLTQSPSSLSASVGDRVTITCRAGESVDIFGVGFLHWYQQKPGKAPKLLIYRASNLESGIPSRFSGSGSRTDFTLTISSLQPEDFATYYCQQTNEDPYTFGQGTKVEIKRTVAAPSVFIFPPSDEQLKSGTASVVCLLNNFYPREAKVQWKVDNALQSGNSQESVTEQDSKDSTYSLSSTLTLSKADYEKHKVYACEVTHQGLSSPVTKSFNRGEC
Renal residual amount (normal mice), % of dose/tissue [5]: 2.60 % of dose/tissue | Renal residual amount (normal mice), Proportion of decrease (%) [5]: 91.13% | Renal residual amount (cancer-bearing mice), % of dose/tissue [3]: 5.77 % of dose/tissue | Renal residual amount (cancer-bearing mice), Proportion of decrease (%) [3]: 77.68%

B10: Ex-No 10: (Y—S1—X)p-Fab^2: Y Gd/DOTA, S1 bond, X -Met-Ile-Lys*-Z2(#N)— (conjugate)
heavy: EVQLVESGGGLVQPGGSLRLSCAASGFNIRDTYMHWVRQAPGKGLEWVARIDPANGNSRYVPKFQGRFTISADTSRNTAYLQMNSLRAEDTAVYYCAPFGYYVSDYAMAYWGQGTLVTVSSASTKGPSVFPLAPSSKSTSGGTAALGCLVKDYFPEPVTVSWNSGALTSGVHTFPAVLQSSGLYSLSSVVTVPSSSLGTQTYICNVNHKPSNTKVDKKVEPKSCD
light: DIQLTQSPSSLSASVGDRVTITCRAGESVDIFGVGFLHWYQQKPGKAPKLLIYRASNLESGIPSRFSGSGSRTDFTLTISSLQPEDFATYYCQQTNEDPYTFGQGTKVEIKRTVAAPSVFIFPPSDEQLKSGTASVVCLLNNFYPREAKVQWKVDNALQSGNSQESVTEQDSKDSTYSLSSTLTLSKADYEKHKVYACEVTHQGLSSPVTKSFNRGEC
Renal residual amount (normal mice), % of dose/tissue [5]: 20.10 % of dose/tissue | Renal residual amount (normal mice), Proportion of decrease (%) [5]: 31.46%

B11: [Gd/DOTA-NH—CH2-(1,3-Ph)-C(═O)-Met-Gly-Lys*-Z2(#N)]p-Fab^2 (conjugate)
heavy: EVQLVESGGGLVQPGGSLRLSCAASGFNIRDTYMHWVRQAPGKGLEWVARIDPANGNSRYVPKFQGRFTISADTSRNTAYLQMNSLRAEDTAVYYCAPFGYYVSDYAMAYWGQGTLVTVSSASTKGPSVFPLAPSSKSTSGGTAALGCLVKDYFPEPVTVSWNSGALTSGVHTFPAVLQSSGLYSLSSVVTVPSSSLGTQTYICNVNHKPSNTKVDKKVEPKSCD
light: DIQLTQSPSSLSASVGDRVTITCRAGESVDIFGVGFLHWYQQKPGKAPKLLIYRASNLESGIPSRFSGSGSRTDFTLTISSLQPEDFATYYCQQTNEDPYTFGQGTKVEIKRTVAAPSVFIFPPSDEQLKSGTASVVCLLNNFYPREAKVQWKVDNALQSGNSQESVTEQDSKDSTYSLSSTLTLSKADYEKHKVYACEVTHQGLSSPVTKSFNRGEC
Proportion of decrease (%) in the amount of Gd contained in the kidneys [4]: 50.3%

B12: [Gd/DOTA-NH—CH2-(1,3-Ph)-C(═O)-Met-Gly-Lys*-Z2(#S)]p-Fab^2 (conjugate)
heavy: EVQLVESGGGLVQPGGSLRLSCAASGFNIRDTYMHWVRQAPGKGLEWVARIDPANGNSRYVPKFQGRFTISADTSRNTAYLQMNSLRAEDTAVYYCAPFGYYVSDYAMAYWGQGTLVTVSSASTKGPSVFPLAPSSKSTSGGTAALGCLVKDYFPEPVTVSWNSGALTSGVHTFPAVLQSSGLYSLSSVVTVPSSSLGTQTYICNVNHKPSNTKVDKKVEPKSCD
light: DIQLTQSPSSLSASVGDRVTITCRAGESVDIFGVGFLHWYQQKPGKAPKLLIYRASNLESGIPSRFSGSGSRTDFTLTISSLQPEDFATYYCQQTNEDPYTFGQGTKVEIKRTVAAPSVFIFPPSDEQLKSGTASVVCLLNNFYPREAKVQWKVDNALQSGNSQESVTEQDSKDSTYSLSSTLTLSKADYEKHKVYACEVTHQGLSSPVTKSFNRGEC
Renal residual amount (cancer-bearing mice), % of dose/tissue [3]: 12.33 % of dose/tissue | Renal residual amount (cancer-bearing mice), Proportion of decrease (%) [3]: 52.26% | Proportion of decrease (%) in the amount of Gd contained in the kidneys [4]: 58.3%
